{"source": "the supplement of paper PMC10567573", "parents": {"B1": {"name": "DVL3 (parent)", "chain": "YNPHPGFPELGYSYGGGSASSQHS"}, "B2": {"name": "VPS39 (parent)", "chain": "LRLENNHCHIEESEHVLKKAHKYS"}}}
{"variants_of": "B1", "assay": "protein stability index of a GFP-peptide fusion (GPS, HEK-293T) (PSI 1-6); higher = more stable", "settings": "c terminus: a fixed tail appended"}
{"variant": "YNPHPGFPELGYSYGGGSASSDHS", "protein stability index": 3.41}
{"variant": "YNPHPGFPELGYSYGGGSASSEHS", "protein stability index": 2.85}
{"variant": "YNPHPGFPELGYSYGGGSASSFHS", "protein stability index": 2.88}
{"variant": "YNPHPGFPELGYSYGGGSASSGHS", "protein stability index": 2.62}
{"variant": "YNPHPGFPELGYSYGGGSASSHHS", "protein stability index": 2.73}
{"variant": "YNPHPGFPELGYSYGGGSASSIHS", "protein stability index": 2.33}
{"variant": "YNPHPGFPELGYSYGGGSASSKHS", "protein stability index": 3.4}
{"variant": "YNPHPGFPELGYSYGGGSASSLHS", "protein stability index": 1.67}
{"variant": "YNPHPGFPELGYSYGGGSASSMHS", "protein stability index": 2.08}
{"variant": "YNPHPGFPELGYSYGGGSASSNHS", "protein stability index": 2.6}
{"variant": "YNPHPGFPELGYSYGGGSASSPHS", "protein stability index": 2.98}
{"variant": "YNPHPGFPELGYSYGGGSASSRHS", "protein stability index": 2.58}
{"variant": "YNPHPGFPELGYSYGGGSASSSHS", "protein stability index": 2.71}
{"variant": "YNPHPGFPELGYSYGGGSASSTHS", "protein stability index": 3.69}
{"variant": "YNPHPGFPELGYSYGGGSASSVHS", "protein stability index": 2.33}
{"variant": "YNPHPGFPELGYSYGGGSASSWHS", "protein stability index": 2.06}
{"variant": "YNPHPGFPELGYSYGGGSASSYHS", "protein stability index": 2.4}
{"variant": "YNPHPGFPELGYSYGGGSASSQAS", "protein stability index": 2.62}
{"variant": "YNPHPGFPELGYSYGGGSASSQCS", "protein stability index": 2.38}
{"variant": "YNPHPGFPELGYSYGGGSASSQDS", "protein stability index": 3.14}
{"variant": "YNPHPGFPELGYSYGGGSASSQES", "protein stability index": 2.6}
{"variant": "YNPHPGFPELGYSYGGGSASSQFS", "protein stability index": 2.37}
{"variant": "YNPHPGFPELGYSYGGGSASSQGS", "protein stability index": 2.78}
{"variant": "YNPHPGFPELGYSYGGGSASSQIS", "protein stability index": 2.9}
{"variant": "YNPHPGFPELGYSYGGGSASSQKS", "protein stability index": 2.87}
{"variant": "YNPHPGFPELGYSYGGGSASSQLS", "protein stability index": 2.86}
{"variant": "YNPHPGFPELGYSYGGGSASSQMS", "protein stability index": 3.04}
{"variant": "YNPHPGFPELGYSYGGGSASSQNS", "protein stability index": 2.99}
{"variant": "YNPHPGFPELGYSYGGGSASSQPS", "protein stability index": 2.79}
{"variant": "YNPHPGFPELGYSYGGGSASSQQS", "protein stability index": 2.58}
{"variant": "YNPHPGFPELGYSYGGGSASSQRS", "protein stability index": 3}
{"variant": "YNPHPGFPELGYSYGGGSASSQSS", "protein stability index": 2.62}
{"variant": "YNPHPGFPELGYSYGGGSASSQTS", "protein stability index": 3.2}
{"variant": "YNPHPGFPELGYSYGGGSASSQVS", "protein stability index": 2.32}
{"variant": "YNPHPGFPELGYSYGGGSASSQWS", "protein stability index": 2.19}
{"variant": "YNPHPGFPELGYSYGGGSASSQYS", "protein stability index": 2.92}
{"variant": "YNPHPGFPELGYSYGGGSASSQHA", "protein stability index": 2.33}
{"variant": "YNPHPGFPELGYSYGGGSASSQHD", "protein stability index": 3.13}
{"variant": "YNPHPGFPELGYSYGGGSASSQHE", "protein stability index": 2.41}
{"variant": "YNPHPGFPELGYSYGGGSASSQHF", "protein stability index": 2.14}
{"variant": "YNPHPGFPELGYSYGGGSASSQHG", "protein stability index": 3.11}
{"variant": "YNPHPGFPELGYSYGGGSASSQHH", "protein stability index": 2.33}
{"variant": "YNPHPGFPELGYSYGGGSASSQHI", "protein stability index": 2.56}
{"variant": "YNPHPGFPELGYSYGGGSASSQHK", "protein stability index": 2.76}
{"variant": "YNPHPGFPELGYSYGGGSASSQHL", "protein stability index": 2.62}
{"variant": "YNPHPGFPELGYSYGGGSASSQHM", "protein stability index": 2.44}
{"variant": "YNPHPGFPELGYSYGGGSASSQHN", "protein stability index": 2.42}
{"variant": "YNPHPGFPELGYSYGGGSASSQHP", "protein stability index": 3.36}
{"variant": "YNPHPGFPELGYSYGGGSASSQHR", "protein stability index": 1.87}
{"variant": "YNPHPGFPELGYSYGGGSASSQHT", "protein stability index": 1.78}
{"variant": "YNPHPGFPELGYSYGGGSASSQHV", "protein stability index": 2.41}
{"variant": "YNPHPGFPELGYSYGGGSASSQHW", "protein stability index": 2.03}
{"variant": "YNPHPGFPELGYSYGGGSASSQHY", "protein stability index": 2.26}
{"variants_of": "B2", "assay": "protein stability index of a GFP-peptide fusion (GPS, HEK-293T) (PSI 1-6); higher = more stable", "settings": "c terminus: a fixed tail appended"}
{"variant": "ARLENNHCHIEESEHVLKKAHKYS", "protein stability index": 3.91}
{"variant": "CRLENNHCHIEESEHVLKKAHKYS", "protein stability index": 3.29}
{"variant": "DRLENNHCHIEESEHVLKKAHKYS", "protein stability index": 4.36}
{"variant": "ERLENNHCHIEESEHVLKKAHKYS", "protein stability index": 4.29}
{"variant": "FRLENNHCHIEESEHVLKKAHKYS", "protein stability index": 2.3}
{"variant": "GRLENNHCHIEESEHVLKKAHKYS", "protein stability index": 4.6}
{"variant": "HRLENNHCHIEESEHVLKKAHKYS", "protein stability index": 4.02}
{"variant": "IRLENNHCHIEESEHVLKKAHKYS", "protein stability index": 3.44}
{"variant": "KRLENNHCHIEESEHVLKKAHKYS", "protein stability index": 4.2}
{"variant": "MRLENNHCHIEESEHVLKKAHKYS", "protein stability index": 2.99}
{"variant": "NRLENNHCHIEESEHVLKKAHKYS", "protein stability index": 3.65}
{"variant": "PRLENNHCHIEESEHVLKKAHKYS", "protein stability index": 3.79}
{"variant": "QRLENNHCHIEESEHVLKKAHKYS", "protein stability index": 4.08}
{"variant": "RRLENNHCHIEESEHVLKKAHKYS", "protein stability index": 3.48}
{"variant": "SRLENNHCHIEESEHVLKKAHKYS", "protein stability index": 4.19}
{"variant": "TRLENNHCHIEESEHVLKKAHKYS", "protein stability index": 4.32}
{"variant": "VRLENNHCHIEESEHVLKKAHKYS", "protein stability index": 2.29}
{"variant": "WRLENNHCHIEESEHVLKKAHKYS", "protein stability index": 3.14}
{"variant": "YRLENNHCHIEESEHVLKKAHKYS", "protein stability index": 4.1}
{"variant": "LALENNHCHIEESEHVLKKAHKYS", "protein stability index": 3.68}
{"variant": "LCLENNHCHIEESEHVLKKAHKYS", "protein stability index": 3.15}
{"variant": "LDLENNHCHIEESEHVLKKAHKYS", "protein stability index": 4.26}
{"variant": "LELENNHCHIEESEHVLKKAHKYS", "protein stability index": 4.59}
{"variant": "LFLENNHCHIEESEHVLKKAHKYS", "protein stability index": 2.62}
{"variant": "LGLENNHCHIEESEHVLKKAHKYS", "protein stability index": 4.24}
{"variant": "LHLENNHCHIEESEHVLKKAHKYS", "protein stability index": 3.55}
{"variant": "LILENNHCHIEESEHVLKKAHKYS", "protein stability index": 2.54}
{"variant": "LKLENNHCHIEESEHVLKKAHKYS", "protein stability index": 3.12}
{"variant": "LLLENNHCHIEESEHVLKKAHKYS", "protein stability index": 2.54}
{"variant": "LMLENNHCHIEESEHVLKKAHKYS", "protein stability index": 2.66}
{"variant": "LNLENNHCHIEESEHVLKKAHKYS", "protein stability index": 3.55}
{"variant": "LPLENNHCHIEESEHVLKKAHKYS", "protein stability index": 4.55}
{"variant": "LQLENNHCHIEESEHVLKKAHKYS", "protein stability index": 4.11}
{"variant": "LSLENNHCHIEESEHVLKKAHKYS", "protein stability index": 3.62}
{"variant": "LTLENNHCHIEESEHVLKKAHKYS", "protein stability index": 3.81}
{"variant": "LVLENNHCHIEESEHVLKKAHKYS", "protein stability index": 2.44}
{"variant": "LWLENNHCHIEESEHVLKKAHKYS", "protein stability index": 2.15}
{"variant": "LYLENNHCHIEESEHVLKKAHKYS", "protein stability index": 2.79}
{"variant": "LRAENNHCHIEESEHVLKKAHKYS", "protein stability index": 3.55}
{"variant": "LRDENNHCHIEESEHVLKKAHKYS", "protein stability index": 3.12}
{"variant": "LREENNHCHIEESEHVLKKAHKYS", "protein stability index": 4.58}
